Experimental data published in paper PMC3202462.

What was measured:
[1] = molecular target: E-domain of gephyrin (residues 309-750, P1 variant); test: ITC
[2] = molecular target: GST fusion of the intracellular domain of the GABAAR α5 subunit; test: far-Western, overlay or dot blot
[3] = molecular target: GST-α1 T375D (mouse) (UniProt P62812); test: far-Western, overlay or dot blot
[4] = molecular target: GST-α1 T375E (mouse) (UniProt P62812); test: far-Western, overlay or dot blot
[5] = molecular target: GST fusion of the intracellular loop of the GABAAR α2 subunit; test: far-Western, overlay or dot blot
[6] = molecular target: GST-α1 T375A (mouse) (UniProt P62812); test: far-Western, overlay or dot blot

Substance	Kd [1]	stoichiometry N [1]	dH [1]	gephyrin binding, % of control [2]	gephyrin binding normalised to GST-α1 (100%) [3]	gephyrin binding normalised to GST-α1 (100%) [4]	gephyrin binding, % of GST-α1 [5]	gephyrin binding, % of control [6]
6-His-tagged GABAAR α1 cytoplasmic loop (M3-M4), wild type (domain or fragment)	17 µM	0.62						
6-His-tagged GABAAR α1 T375A cytoplasmic loop (domain or fragment)	36 µM	0.64	-15 kcal/mol					
6-His-tagged GABAAR α1 T375E cytoplasmic loop (domain or fragment)	183 µM	0.69						
35S-methionine-labelled gephyrin, P1 isoform (natural protein)				12.9 % of control	68.9%	62.5%	43.7 % of GST-α1	109 % of control
